Laboratory results taken from the supplement of paper PMC10899765.

How the values were obtained:
Settings in all cases: 20 nM; 72 h
MCF10A [1] = experiment: percent viability (nuclei count relative to siNT); higher = more viable cells
Protocol: (§1)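 After 72 h, cells were fixed and stained with Hoechst and anti-fibrillarin, and nucleoli per nucleus were counted with CellProfiler. Values are plate-adjusted percent effect for the one-nucleolus and 5+ nucleoli phenotypes, normalised to siNT (0%) and to the positive controls siNOL11 or siKIF11 (100%), as the mean of biological triplicates. Percent viability is the nuclei count relative to siNT.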

MCF10A [2] = experiment: 5+ nucleoli phenotype percent effect (relative to siNT 0% and siKIF11 100%); higher = more cells with five or more nucleoli
Protocol: as §1

MCF10A [3] = experiment: one-nucleolus phenotype percent effect (relative to siNT 0% and siNOL11 100%); higher = more cells with one nucleolus (ribosome biogenesis inhibition)
Protocol: as §1

| Sequence | percent viability (MCF10A [1]) | 5+ nucleoli phenotype percent effect (MCF10A [2]) | one-nucleolus phenotype percent effect (MCF10A [3]) |
| --- | --- | --- | --- |
| UAGGGGAAAAGUCCUGAUCCGG [hsa-miR-6783-5p] | 78.4% | 18.2% | -20.2% |
| AGGCAAGAUGCUGGCAUAGCU [hsa-miR-31-5p] | 16.8% | -4.74% | 26% |
| UGUCACUCGGCUCGGCCCACUAC [hsa-miR-668] | 60.6% | -8.26% | -1.34% |
| UUCACAAGGAGGUGUCAUUUAU [hsa-miR-513b] | 62.4% | -29.7% | 14.2% |
| UGUAGUGUUUCCUACUUUAUGGA [hsa-miR-142-3p] | 82.8% | -20% | 23.4% |
| UAUUGCACAUUACUAAGUUGCA [hsa-miR-32-5p] | 123% | 9.82% | -7.37% |
| CUCAGUGACUCAUGUGC [hsa-miR-4276] | 72.6% | -21.3% | 17.5% |
| GAAGAAUAGGAGGGACUUUGU [hsa-miR-6507-5p] | 79.1% | 35.1% | -12.9% |
| GGAUGGUUGGGGGCGGUCGGCGU [hsa-miR-8069] | 33.5% | -16.7% | 28.5% |
| AGCAGCAUUGUACAGGGCUAUCA [hsa-miR-107] | 22.7% | -26.1% | 29.9% |
| UGCGGGGACAGGCCAGGGCAUC [hsa-miR-4749-5p] | 21.9% | -24.9% | 50.5% |
| CAAAAACCGCAAUUACUUUUGCA [hsa-miR-548h-3p] | 52% | -11% | -6.67% |
| AAAGUUCUGAGACACUCCGACU [hsa-miR-148a-5p] | 89% | 9.44% | -5.53% |
| AGACUUCCCAUUUGAAGGUGGC [hsa-miR-617] | 43.8% | -37.8% | 43.9% |
| CGACCUCGGCGACCCCUCACU [hsa-miR-6790-3p] | 45.6% | -13.8% | 8.29% |
| CUUCCGGUCUGUGAGCCCCGUC [hsa-miR-4664-3p] | 36.8% | -1.01% | 14.5% |
| CAGGGCUGGCAGUGACAUGGGU [hsa-miR-4446-3p] | 25.9% | -5.74% | 1.33% |
| UGCCCUGCAUGGUGUCCCCACAG [hsa-miR-6799-3p] | 41.1% | -1.27% | 6.43% |

| Sequence | percent viability (MCF10A [1]) | 5+ nucleoli phenotype percent effect (MCF10A [2]) | one-nucleolus phenotype percent effect (MCF10A [3]) |
| --- | --- | --- | --- |
| AGACACAUUUGGAGAGGGACCC [hsa-miR-642b-3p] | 71.1% | -6.68% | -3.17% |
| AACUGGAUCAAUUAUAGGAGUG [hsa-miR-1243] | 174% | 53.3% | -29.3% |
| GCCCUGACCUGUCCUGUUCUG [hsa-miR-4732-3p] | 64.3% | 21.5% | -20.3% |
| GGCUUUCUAGUCUCAGCUCUCC [hsa-miR-3160-5p] | 110% | 38.5% | -16.4% |
| UGUGGGAUCUGGAGGCAUCUGG [hsa-miR-4654] | 38.8% | -29.4% | 6.3% |
| CUCAAGUAGUCUGACCAGGGGA [hsa-miR-4465] | 67% | 21.6% | -5.88% |
| UCCCUGAGCAAAGCCAC [hsa-miR-4319] | 59.9% | 9.87% | -1.9% |
| UGAGCACCACACAGGCCGGGCGC [hsa-miR-3663-3p] | 58.5% | 12.4% | -6.6% |
| UAAAACUUUAAGUGUGCCUAGG [hsa-miR-5582-3p] | 72.9% | 7.07% | -11.3% |
| UAGGCAGUGUCAUUAGCUGAUUG [hsa-miR-34b-5p] | 17.6% | -23.8% | 35.6% |
| CAUGACGUCACAGAGGCUUCGC [hsa-miR-4757-3p] | 61.2% | 36.1% | -14.4% |
| UGCCUCCUCCGUGGCCUCAG [hsa-miR-6829-3p] | 22.7% | -1.77% | 0.866% |
| UGCCUACUGAGCUGAAACACAG [hsa-miR-24-2-5p] | 46.7% | -9.36% | 7.59% |
| CAAAAACUGCAGUUACUUUUGC [hsa-miR-548ah-3p] | 144% | 63.6% | -24.8% |
| UCCUCCUCUACCUCAUCCCAGU [hsa-miR-5193] | 35.1% | -13.6% | 9.86% |
| AACCAGCACCCCAACUUUGGAC [hsa-miR-634] | 4.33% | -57.2% | -35.9% |
| UAGGCAGUGUAUUGCUAGCGGCUGU [hsa-miR-449c-5p] | 17.7% | -19.5% | 17.4% |
| UGUGAUAUCAUGGUUCCUGGGA [hsa-miR-3689b-5p] | 23.6% | -25.9% | 19% |
